The text below walks through data of publication PMC5070455 (Biophysics, 2012).

This data set deals with the molecule itself. The data set can be described thus: negative-stain electron microscopy.

B1: desmin (natural protein, chicken, UniProt P02542 1-464, looked up)
chain: MSQSYSSSQRVSSYRRTFGGGTSPVFPRASFGSRGSGSSVTSRVYQVSRTSAVPTLSTFRTTRVTPLRTYQSAYQGAGELLDFSLADAMNQEFLQTRTNEKVELQELNDRFANYIEKVRFLEQQNALMVAEVNRLRGKEPTRVAEMYEEELRELRRQVDALTGQRARVEVERDNLLDDLQKLKQRLQEEIQLKEEAENNLAAFRADVDAATLARIDLERRIESLQEEIAFLKKVHEEEIRELQAQLQEQHIQVEMDISKPDLTAALRDIRAQYESIAAKNIAEAEEWYKSKVSDLTQAANKNNDALRQAKQEMLEYRHQIQSYTCEIDALKGTNDSLMRQMREMEERFAGEAGGYQDTIARLEEEIRHLKDEMARHLREYQDLLNVKMALDVEIATYRKLLEGEENRISIPMHQTFASALNFRETSPDQRGSEVHTKKTVMIKTIETRDGEVVSEATQQQHEVL
In the case of B1, the binding result is on record as “binds”.
